In paper PMC7870818, “SPRTN protease-cleaved MRE11 decreases DNA repair and radiosensitises cancer cells”:

Legend:
TR-MRE11 = biological target: T1, TR-MRE11 (human, UniProt P49959 1-568, del569-708); test: fluorescence polarization; no metal listed in buffer; apparent Kd, n=1; 7-fold lower affinity than FL; 10 mM Tris pH 8.0, 25 mM NaCl, 0.1% Tween20, 2 mM DTT; 10 nM DNA; temperature not stated, measured immediately; conditions: protein: recombinant; tags: His-SUMO tag removed by SUMO protease; chain copies: 2; label: 5' FITC on TP423; 34 bp duplex (S1[1-34] with S2[1-34]); 3' overhangs 16 nt (S1) and 15 nt (S2)
T1 sequence: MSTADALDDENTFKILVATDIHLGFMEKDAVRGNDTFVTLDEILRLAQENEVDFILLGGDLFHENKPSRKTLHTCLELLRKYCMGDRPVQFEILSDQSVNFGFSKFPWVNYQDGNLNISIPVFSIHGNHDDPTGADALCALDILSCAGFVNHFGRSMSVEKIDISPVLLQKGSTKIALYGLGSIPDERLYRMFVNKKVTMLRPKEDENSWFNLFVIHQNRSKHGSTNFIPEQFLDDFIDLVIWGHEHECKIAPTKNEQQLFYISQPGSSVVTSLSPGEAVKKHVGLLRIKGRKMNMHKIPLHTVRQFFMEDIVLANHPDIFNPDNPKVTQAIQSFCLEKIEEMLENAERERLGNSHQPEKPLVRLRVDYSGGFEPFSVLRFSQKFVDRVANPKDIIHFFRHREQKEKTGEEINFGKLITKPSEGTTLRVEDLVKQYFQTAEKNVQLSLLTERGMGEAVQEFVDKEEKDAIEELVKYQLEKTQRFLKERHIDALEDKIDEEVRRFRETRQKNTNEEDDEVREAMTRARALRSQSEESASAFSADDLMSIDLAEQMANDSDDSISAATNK

FL-MRE11 = biological target: T2, FL-MRE11 (human, UniProt P49959 1-708); test: fluorescence polarization; no metal listed in buffer; apparent Kd, n=1; 10 mM Tris pH 8.0, 25 mM NaCl, 0.1% Tween20, 2 mM DTT; 10 nM DNA; temperature not stated, measured immediately; conditions: protein: recombinant; tags: His tag (pNIC28-Bsa4), TEV protease treated; chain copies: 2; label: 5' FITC on TP423; 34 bp duplex (S1[1-34] with S2[1-34]); 3' overhangs 16 nt (S1) and 15 nt (S2)
T2 sequence: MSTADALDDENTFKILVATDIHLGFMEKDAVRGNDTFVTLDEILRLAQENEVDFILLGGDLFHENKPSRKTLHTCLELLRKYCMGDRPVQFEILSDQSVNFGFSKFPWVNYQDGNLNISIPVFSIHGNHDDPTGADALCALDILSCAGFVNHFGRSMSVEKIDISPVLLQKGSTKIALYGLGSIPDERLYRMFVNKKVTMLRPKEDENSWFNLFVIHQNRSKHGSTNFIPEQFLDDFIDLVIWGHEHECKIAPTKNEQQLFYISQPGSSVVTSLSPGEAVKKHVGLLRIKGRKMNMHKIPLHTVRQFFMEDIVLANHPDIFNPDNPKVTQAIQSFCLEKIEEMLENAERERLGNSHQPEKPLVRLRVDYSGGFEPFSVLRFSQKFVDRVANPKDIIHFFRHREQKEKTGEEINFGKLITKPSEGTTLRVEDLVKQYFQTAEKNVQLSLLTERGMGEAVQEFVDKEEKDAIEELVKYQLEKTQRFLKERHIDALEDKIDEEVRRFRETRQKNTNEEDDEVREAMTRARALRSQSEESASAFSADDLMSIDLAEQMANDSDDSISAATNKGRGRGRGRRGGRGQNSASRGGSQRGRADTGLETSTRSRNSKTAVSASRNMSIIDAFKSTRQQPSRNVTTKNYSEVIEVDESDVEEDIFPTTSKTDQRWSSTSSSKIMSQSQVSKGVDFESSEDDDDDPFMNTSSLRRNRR

B1: TP423/TP424 3'-overhang duplex (dsDNA)
DNA 1: CTGCAGGGTTTTTGTTCCAGTCTGTAGCACTGTGTAAGACAGGCCAGATC
DNA 2: CACAGTGCTACAGACTGGAACAAAAACCCTGCAGTACTCTACTCATCTC
Kd (TR-MRE11): 242 nM
Kd (FL-MRE11): 34.6 nM
